Reference: the Human Domainome abundance scans (Beltran et al. 2025)
± gives the uncertainty stated by the source.

B1: Calcium-binding protein 2, residues 155 to 219; numbered along this chain, Q9NPB3 (parent)
chain: RELRDAFREFDTNGDGRISVGELRAALKALLGERLSQREVDEILQDVDLNGDGLVDFEEFVRMMS

Variants of: B1
Assay: abundance fitness (aPCA) (normalised: wild type 0, dead -1); higher = more abundant; growth selection in yeast, the domain comes from the species named
Conditions: Homo sapiens

In order of falling abundance fitness:
1. RELRDAFREFDTNGDGRISVGELRAALKALLGERLSQREVDEILQDVDLDGDGLVDFEEFVRMMS [N50D]  0.186 ± 0.077
2. RELRDAFREFDTNGDGRISVGELRAALKALLGERLSQREVDEILQDVRLNGDGLVDFEEFVRMMS [D48R]  0.185 ± 0.05
3. RELRDAFREFDTNGDGRISVGELRAALKALLGERLSQREVDEILQDVDLNEDGLVDFEEFVRMMS [G51E]  0.181 ± 0.063
4. RELRDAFREFDTNGDGRISVGELRAALKALLGERLSQREVDEILQDVKLNGDGLVDFEEFVRMMS [D48K]  0.152 ± 0.082
5. RELRDAFREFDTNGDGRISVGELRAALKALLGERLSQREVDEILQDVELNGDGLVDFEEFVRMMS [D48E]  0.131 ± 0.1
6. RELRDAFREFDTNGDGRISVGELRAALKALLGERLSQREVDEILQDVQLNGDGLVDFEEFVRMMS [D48Q]  0.127 ± 0.074
7. RELRDAFREFDTNGDGRISVGELRAALKALLGERLSQREVDEILQDVNLNGDGLVDFEEFVRMMS [D48N]  0.122 ± 0.13
8. RELRDAFREFDTNGDGRISVGELRAALKALLGERLSQREVDEILQDVSLNGDGLVDFEEFVRMMS [D48S]  0.109 ± 0.087
9. RELRDAFREFDTNGDGRISVGELRAALKALLGERLSQREVDEILQDVHLNGDGLVDFEEFVRMMS [D48H]  0.108 ± 0.11
10. RELRDAFREFDTNGDGRISVGELRAALKALLGERLSQREVDEILQDVILNGDGLVDFEEFVRMMS [D48I]  0.105 ± 0.41
11. RELRDAFREFDTNGDGRISVGELRAALKALLGERLSQREVDEILQDVVLNGDGLVDFEEFVRMMS [D48V]  0.092 ± 0.048
12. RELRDAFREFDTNGDGRISVGELRAALKALLGERLSQREVDEILQDVALNGDGLVDFEEFVRMMS [D48A]  0.068 ± 0.098
13. RELRDAFREFDTNGDGRISVGELRAALKALLGERLSQREVDEILQDVDLNADGLVDFEEFVRMMS [G51A]  0.062 ± 0.054
14. RELRDAFREFDTNGDGRISVGELRAALKALLGERLSQREVDEILQDVTLNGDGLVDFEEFVRMMS [D48T]  0.057 ± 0.098
15. RELRDAFREFDTNGDGRISVGELRAALKALLGERLSQREVDEILQDVDLNDDGLVDFEEFVRMMS [G51D]  0.057 ± 0.16
16. RELRDAFREFDTNGDGRISVGELRAALKALLGERLSQREVDEILQDVMLNGDGLVDFEEFVRMMS [D48M]  0.05 ± 0.11
17. RELRDAFREFDTNGDGRISVGELRAALKALLGERLSQREVDEILQDVYLNGDGLVDFEEFVRMMS [D48Y]  0.042 ± 0.099
18. RELRDAFREFDTNGDGRISVGELRAALKALLGERLSQREVDEILQDVDLCGDGLVDFEEFVRMMS [N50C]  0.032 ± 0.12
19. RELRDAFREFDTNGDGRISVGELRAALKALLGERLSQREVDEILQDVDLKGDGLVDFEEFVRMMS [N50K]  0.028 ± 0.068
20. RELRDAFREFDTNGDGRISVGELRAALKALLGERLSQREVDEILQDVDLNKDGLVDFEEFVRMMS [G51K]  0.014 ± 0.17
21. RELRDAFREFDTNGDGRISVGELRAALKALLGERLSQREVDEILQDYDLNGDGLVDFEEFVRMMS [V47Y]  -0.01 ± 0.058
22. RELRDAFREFDTNGDGRISVGELRAALKALLGERLSQREVDEILQDVDLQGDGLVDFEEFVRMMS [N50Q]  -0.014 ± 0.09
23. RELRDAFREFDTNGDGRISVGELRAALKALLGERLSQREVDEILQDVLLNGDGLVDFEEFVRMMS [D48L]  -0.015 ± 0.066
24. RELRDAFREFDTNGDGRISVGELRAALKALLGERLSQREVDEILQDVDLTGDGLVDFEEFVRMMS [N50T]  -0.022 ± 0.084
25. RELRDAFREFDTNGDGRISVGELRAALKALLGERLSQREVDEILQDVDLAGDGLVDFEEFVRMMS [N50A]  -0.056 ± 0.077
26. RELRDAFREFDTNGDGRISVGELRAALKALLGERLSQREVDEILQDVDLNHDGLVDFEEFVRMMS [G51H]  -0.071 ± 0.15
27. RELRDAFREFDTNGDGRISVGELRAALKALLGERLSQREVDEILQDVDLSGDGLVDFEEFVRMMS [N50S]  -0.092 ± 0.067
28. RELRDAFREFDTNGDGRISVGELRAALKALLGERLSQREVDEILQDVWLNGDGLVDFEEFVRMMS [D48W]  -0.103 ± 0.065
29. RELRDAFREFDTNGDGRISVGELRAALKALLGERLSQREVDEILQDVDLEGDGLVDFEEFVRMMS [N50E]  -0.19 ± 0.061
30. RELRDAFREFDTNGDGRISVGELRAALKALLGERLSQREVDEILQDWDLNGDGLVDFEEFVRMMS [V47W]  -0.199 ± 0.072
31. RELRDAFREFDTNGDGRISVGELRAALKALLGERLSQREVDEILQDVDLPGDGLVDFEEFVRMMS [N50P]  -0.2 ± 0.062
32. RELRDAFREFDTNGDGRISVGELRAALKALLGERLSQREVDEILQDVPLNGDGLVDFEEFVRMMS [D48P]  -0.231 ± 0.086
33. RELRDAFREFDTNGDGRISVGELRAALKALLGERLSQREVDEILQDVDLLGDGLVDFEEFVRMMS [N50L]  -0.232 ± 0.062
34. RELRDAFREFDTNGDGRISVGELRAALKALLGERLSQREVDEILQDVDLVGDGLVDFEEFVRMMS [N50V]  -0.254 ± 0.061
35. RELRDAFREFDTNGDGRISVGELRAALKALLGERLSQREVDEILQDVDLNFDGLVDFEEFVRMMS [G51F]  -0.269 ± 0.18
36. RELRDAFREFDTNGDGRISVGELRAALKALLGERLSQREVDEILQDVDLFGDGLVDFEEFVRMMS [N50F]  -0.346 ± 0.14
37. RELRDAFREFDTNGDGRISVGELRAALKALLGERLSQREVDEILQDVDLYGDGLVDFEEFVRMMS [N50Y]  -0.419 ± 0.16
38. RELRDAFREFDTNGDGRISVGELRAALKALLGERLSQREVDEILQDVFLNGDGLVDFEEFVRMMS [D48F]  -0.434 ± 0.27
39. RELRDAFREFDTNGDGRISVGELRAALKALLGERLSQREVDEILQDVDLIGDGLVDFEEFVRMMS [N50I]  -0.488 ± 0.12
40. RELRDAFREFDTNGDGRISVGELRAALKALLGERLSQREVDEILQDVGLNGDGLVDFEEFVRMMS [D48G]  -0.529 ± 0.081
41. RELRDAFREFDTNGDGRISVGELRAALKALLGERLSQREVDEILQDVDLWGDGLVDFEEFVRMMS [N50W]  -0.627 ± 0.067
42. RELRDAFREFDTNGDGRISVGELRAALKALLGERLSQREVDEILQDVDLMGDGLVDFEEFVRMMS [N50M]  -0.833 ± 0.2
